Data set [1] deals with T1, RecA (UniProt P0A7G6 2-353). Briefly: EMSA (glutaraldehyde-fixed); pH 5; 1 mM ATP, 10 mM Mg2+; EMSA: 50 mM phosphate/citrate pH 5-8, 50 mM NaCl, 10 mM MgCl2, 1 mM ATP, 25 C, 5 min, then 0.125% glutaraldehyde; stopped-flow: 20 nM dT79, 1 mM ATP, 10 mM MgCl2. The conditions noted are these: protein: commercial; label: 5'-FITC; single strand.
Data set [2] has as its target T1, RecA. Briefly: stopped-flow fluorescence; pH 5; 1 mM ATP, 10 mM Mg2+; binds in less than 1 s; EMSA: 50 mM phosphate/citrate pH 5-8, 50 mM NaCl, 10 mM MgCl2, 1 mM ATP, 25 C, 5 min, then 0.125% glutaraldehyde; stopped-flow: 20 nM dT79, 1 mM ATP, 10 mM MgCl2. The following applies: protein: commercial; label: 5'-Cy3; single strand. Background: Mobility shift assays separate free from complexed probe on a gel.

Experimental findings from paper PMC7655802, “Antibiotic-induced DNA damage results in a controlled loss of pH homeostasis and genome instability” are described below.

T1 sequence (P0A7G6 2-353): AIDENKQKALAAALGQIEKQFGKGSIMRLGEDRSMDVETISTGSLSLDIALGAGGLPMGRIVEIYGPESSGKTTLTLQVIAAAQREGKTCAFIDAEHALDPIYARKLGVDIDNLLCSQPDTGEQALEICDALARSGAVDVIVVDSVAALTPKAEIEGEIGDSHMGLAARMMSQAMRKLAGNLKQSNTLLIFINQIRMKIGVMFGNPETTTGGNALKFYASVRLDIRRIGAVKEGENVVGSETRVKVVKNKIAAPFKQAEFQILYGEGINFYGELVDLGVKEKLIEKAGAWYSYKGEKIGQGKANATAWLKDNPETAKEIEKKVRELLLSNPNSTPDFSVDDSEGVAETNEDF

B1: 90mer oligonucleotide (ssDNA)
DNA: AAATCAATCTAAAGTATATATGAGTAAACTTGGTCTGACAGTTACCAATGCTTAATCAGTGAGGCACCTATCTCAGCGATCTGTCTATTT
Consider B1, for which the binding signal in the data set with RecA [1] was ~10 fold higher affinity at pH 5 than at pH 8.

B2: dT79 (ssDNA)
DNA: TTTTTTTTTTTTTTTTTTTTTTTTTTTTTTTTTTTTTTTTTTTTTTTTTTTTTTTTTTTTTTTTTTTTTTTTTTTTTTT
With B2, the binding result with RecA [2] is listed as “binds”.
